Experimental data taken from PMC9524020 (2022).

Key:
Assay in all cases: SPR
[1] = target: FcγRIIIa-158V, FcγRIIIa-Afucosylated (human)
[2] = target: FcγRIIIa-158V, FcγRIIIa-G2FS(2-6) (human)
[3] = target: FcγRIIIa-158V, FcγRIIIa-Oligomannose (human)
[4] = target: FcγRIIIa-158V, FcγRIIIa-Monoantennae (human)
[5] = target: FcγRIIIa-158V, FcγRIIIa-CHO^WT (human)
[6] = target: FcγRIIIa-158V, FcγRIIIa-HEK^WT (human)
[7] = target: FcγRIIIa-158V, FcγRIIIa-Hybrid (human)
Chain of FcγRIIIa-158V, FcγRIIIa-Hybrid (human) (chain, as listed by the source): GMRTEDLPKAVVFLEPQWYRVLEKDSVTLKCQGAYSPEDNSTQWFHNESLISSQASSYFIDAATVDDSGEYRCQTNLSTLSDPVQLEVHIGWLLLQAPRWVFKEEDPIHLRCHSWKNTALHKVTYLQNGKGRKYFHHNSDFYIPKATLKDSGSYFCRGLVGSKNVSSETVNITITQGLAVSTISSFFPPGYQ

Chain of FcγRIIIa-158V, FcγRIIIa-Monoantennae (human) (chain, as listed by the source): as above
Chain of FcγRIIIa-158V, FcγRIIIa-Oligomannose (human) (chain, as listed by the source): as above
Chain of FcγRIIIa-158V, FcγRIIIa-CHO^WT (human) (chain, as listed by the source): as above
Chain of FcγRIIIa-158V, FcγRIIIa-G2FS(2-6) (human) (chain, as listed by the source): as above
Chain of FcγRIIIa-158V, FcγRIIIa-Afucosylated (human) (chain, as listed by the source): as above
Chain of FcγRIIIa-158V, FcγRIIIa-HEK^WT (human) (chain, as listed by the source): as above

B1: IgG1-CHO^WT (anti-rabies human IgG1 mAb SO57 from the CHO wildtype clone) (antibody)
chain 1: QVQLVQSGAEVKKPGSSVKVSCKASGGTFNRYTVNWVRQAPGQGLEWMGGIIPIFGTANYAQRFQGRLTITADESTSTAYMELSSLRSDDTAVYFCARENLDNSGTYYYFSGWFDPWGQGTLVTVSS
chain 2: QSALTQPRSVSGSPGQSVTISCTGTSSDIGGYNFVSWYQQHPGKAPKLMIYDATKRPSGVPDRFSGSKSGNTASLTISGLQAEDEADYYCCSYAGDYTPGVVFGGGTKLTVL
modifications: N-glycan at Asn297: dominant G0F glycans with small amounts of G1F
- Kd [1]: 460 nM
- Kd [2]: 440 nM
- Kd [3]: 240 nM
- Kd [4]: 490 nM
- Kd [5]: 490 nM
- Kd [6]: 440 nM
- Kd [7]: 460 nM
